Experimental data published in paper PMC8754651 (2021).

B1: human RPB6 (residues 1–24), NTT peptide [human] / human TFIIH p62 PH domain (PH-D) (residues 1–108) [human] (parent complex)
chain 1: MSDNEDNFDGDDFDDVEEDEGLDD
chain 2: MATSSEEVLLIVKKVRQKKQDGALYLMAERIAWAPEGKDRFTISHMYADIKCQKISPEGKAKIQLQLVLHAGDTTNFHFSNESTAVKERDAVKDLLQQLLPKFKRKAN

Variants of: B1
Test: ITC

In order of falling Kd:
1. chain 1 F13A, chain 1 V16A  7.35 µM
2. chain 1 V16A  7.14 µM
3. chain 1 S2A  3.65 µM
4. chain 1 F8A  2.85 µM
